This note sets out measurements from patent US20210079074A1 (Alector, published 2021).

For experiment [1], the target named is T1, negative control polypeptide JS10.
T1 construct: negative control for JS5 and JS6; also called JS10.His
Briefly: ELISA, biotin-antigen on streptavidin plate. As to the method: (§1) Anti-MS4A4A antibodies of the present disclosure were tested for their ability to bind to the different recombinant MS4A4A soluble polypeptides, as described in Example 2, as follows. Nucleic acid encoding the VH and VL domains of humanized anti-MS4A4A antibodies of the present disclosure were cloned into pcDNA3.4 vector which contains either the human IgG1 heavy chain constant domain or human kappa constant domain. The humanized anti-MS4A4A antibodies were expressed in Expi293 cells and were purified by Mab select antibody purification resin (GE Healthcare Life Science, cat#17519902) following the manufacture's protocol. ELISA was performed to measure binding of anti-MS4A4A antibodies of the present disclosure the recombinant MS4A4A soluble polypeptides. 1 μg/ml biotinylated antigens were preincubated on the streptavidin-coated ELISA plates (Thermo Scientific, cat#PI15120) for 1 hour. Plates were washed 3 times, followed by the addition of antibodies (1 μg/ml, 0.33 μg/ml, and 0.11 μg/ml antibodies. Plates were incubated at room temperature with shaking for 1 hr, washed 3 times, then 1/2500 dilution of HRP conjugates goat anti human kappa antibodies added (SigmaAldrich cat#. A7164-1ML).
Background: An ELISA detects its analyte on a solid surface through an enzyme-linked reagent.

In experiment [2] the target is T2, negative control polypeptide JS4.
T2 construct: negative control for JS1; also called JS4.His
The experiment is described as follows: ELISA, biotin-antigen on streptavidin plate. As to the method: as §1

The target of experiment [3] is T3, recombinant MS4A4A soluble polypeptide JS1.
T3 construct: also called JS1.His; loop grafted antigen
The experiment is described as follows: ELISA, biotin-antigen on streptavidin plate. As to the method:
as §1

The target of experiment [4] is T4, recombinant MS4A4A soluble polypeptide JS5.
T4 construct: also called JS5.His
The experiment is described as follows: ELISA, biotin-antigen on streptavidin plate. As to the method:
as §1

Experiment [5] addresses T5, recombinant MS4A4A soluble polypeptide JS6.
T5 construct: also called JS6.His
The experiment is described as follows: ELISA, biotin-antigen on streptavidin plate. As to the method: as §1

A further experiment concerns the target T6, peptide 4A.9 (human, cysteine pairing not given here).
T6 peptide: Biotin-PYCNYYGNSNNCHGT
Briefly: SPR array, biotin-peptide on streptavidin chip. The text has this:
(§2) A panel of overlapping peptides derived from the extracellular loops (ECLs) of human MS4A4A (SEQ ID NO:1) were synthesized by JPT peptides (Berlin, Germany). These peptides were 15 amino acids in length, each offset by 2 amino acids. The peptides were biotinylated on the N-terminus. Peptides 4A.1 through 4A.4 were derived from human MS4A4A ECL1 and surrounding regions. Peptides 4A.5 through 4A.12 were derived from human MS4A4A ECL2 and surrounding regions.
(§3) The peptide library was printed onto a streptavidin-coated chip (Xantec SAD50M, Dusseldorf, Germany) using the Continuous Flow Microspotter (CFM). […] The peptide library was immobilized onto the chip at 250 nM per peptide diluted into HBS-EP+ buffer (Teknova Cat #H8022) with 1 mg/ml BSA and 1 μg/ml mouse IgG-Biotin. Following immobilization, the chip surface was deactivated with 1M ethanolamine at pH 8.5 for 10 minutes. Hybridoma supernatants and purified anti-MS4A4A antibodies were diluted in HBS-EP+ buffer with 1 mg/ml BSA and injected onto the chip. Duplicate measurements for each anti-MS4A4A antibody were taken to ensure reproducibility. Binding characteristics were determined for each peptide-antibody combination, allowing the mapping of the linear peptide region each antibody interacts with.

The target of the next experiment is T7, peptide 4A.4 (human).
T7 peptide: Biotin-ASNTYGSNPISVYIG
The experiment is described as follows: SPR array, biotin-peptide on streptavidin chip.
Description: as §2, §3

Another experiment addresses T8, peptide 4A.5 (human).
T8 peptide: Biotin-LAFYSFHHPYCNYYG
The experiment is described as follows: SPR array, biotin-peptide on streptavidin chip.
Description: as §2, §3

A further experiment deals with T9, peptide 4A.12 (human).
T9 peptide: Biotin-GNSNNCHGTMSILMG
The experiment is described as follows: SPR array, biotin-peptide on streptavidin chip.
Description: as §2, §3

The target of the next experiment is T10, peptide 4A.7 (human).
T10 peptide: Biotin-SFHHPYCNYYGNSNN
Briefly: SPR array, biotin-peptide on streptavidin chip.
Description: as §2, §3

A further experiment concerns the target T11, peptide 4A.10 (human, cysteine pairing not given here).
T11 peptide: Biotin-CNYYGNSNNCHGTMS
Briefly: SPR array, biotin-peptide on streptavidin chip.
Description: as §2, §3

Another experiment addresses T12, peptide 4A.3 (human).
T12 peptide: Biotin-CMASNTYGSNPISVY
The experiment is described as follows: SPR array, biotin-peptide on streptavidin chip.
Description: as §2, §3

A further experiment deals with T13, peptide 4A.6 (human).
T13 peptide: Biotin-FYSFHHPYCNYYGNS
Briefly: SPR array, biotin-peptide on streptavidin chip.
Description: as §2, §3

For a further experiment, the target named is T14, peptide 4A.11 (human).
T14 peptide: Biotin-YYGNSNNCHGTMSIL
The experiment is described as follows: SPR array, biotin-peptide on streptavidin chip.
Description: as §2, §3

The next experiment addresses T15, peptide 4A.8 (human, cysteine pairing not given here).
T15 peptide: Biotin-HHPYCNYYGNSNNCH
The experiment is described as follows: SPR array, biotin-peptide on streptavidin chip.
Description: as §2, §3

The target in another experiment is T16, peptide 4A.1 (human).
T16 peptide: Biotin-ITMMCMASNTYGSNP
Briefly: SPR array, biotin-peptide on streptavidin chip.
Description: as §2, §3

A further experiment deals with T17, peptide 4A.2 (human).
T17 peptide: Biotin-MMCMASNTYGSNPIS
Briefly: SPR array, biotin-peptide on streptavidin chip.
Description: as §2, §3

Experiment [6] addresses T18, huMS4A4A-ECL2 free-peptide (human).
T18 construct: synthetic, free or BSA-conjugated, coated on the plate; also called human MS4A4A ECL2 peptide; huMS4A4A-ELC2 free-peptide
T18 peptide: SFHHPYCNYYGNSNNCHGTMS
Briefly: peptide ELISA, murine antibody. As to the method:
Coated plates were then blocked with ELISA diluent (PBS+0.5% BSA+0.05% Tween20) for 1-hour, washed 3×300 μL in PBST (PBS+0.05% Tween20, Thermo Cat#28352), and then the antibodies were added to the plate ([…]). After 30 mins incubation (room temperature, with shaking), the plates were washed 3×300 μL in PBST. […] After a final set of washes (3×300 μL in PBST), 50 μL of TMB substrate (BioFx Cat#TMBW-1000-01) was added and the reaction was then quenched after 5-10 mins with 50 μL of stop solution (BioFx Cat#BSTP-1000-01). The quenched reaction wells were detected for absorbance at […] with a BioTek Synergy Microplate Reader using GENS 2.04 software.

Experiment [7] has as its target T3, recombinant MS4A4A soluble polypeptide …. Briefly: ELISA, 1 ug/ml antibody. The method, boiled down:
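Biotinylated antigen 1 μg/ml captured on streptavidin, 1 h; wash x3. Humanized IgG1/kappa Ab (Expi293) 1, 0.33, 0.11 μg/ml, 1 hr RT shaking; wash x3. HRP anti-human kappa 1/2500.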

The target of experiment [8] is T4, recombinant MS4A4A soluble polypeptide …. The experiment is described as follows: ELISA, 0.4 ug/ml antibody.

No end group written: not given here. *: point of attachment. Biotin = O=C1N[C@H]2[C@H](CS[C@H]2CCCCC(=O)*)N1

B1: anti-MS4A4A antibody 4A-21 (antibody, V domains shown)
VH: QIQLVQSGPELKKPGETVKISCKASGYIFTSYGLSWVKQTPGKGLKWMGWINTYSGVPTYANDFKGRFAFSLETSASTTYLRINNLKNDDTATYFCARSLVDYWGQGTPLTVSS
VL: not shown
notes: murine parental; tested as mouse IgG1 or as human IgG1 Fc chimera (hFc), told under assay; also called 4A-21.hFc
As for B1, the “ELISA OD” value in [1] is 0.112; in experiment [2] it was 0.138; in experiment [3], 2.02; in experiment [4], 1.73; in [5], 1.67. Besides, the SPR binding response with peptide 4A.9 was 225; with peptide 4A.4 it was -7.9; in the experiment with peptide 4A.5, 383; with peptide 4A.12, -5.2; with peptide 4A.7, 446; with peptide 4A.10, -4.5. Besides, the SPR binding response with peptide 4A.3 is -10.6; with peptide 4A.6, 486; with peptide 4A.11, -6.5; in the experiment with peptide 4A.8, 309; with peptide 4A.1, -11.2; with peptide 4A.2, -11.5. In addition, the binding result in experiment [6] is reported as “binds”. The results for the OD450 in experiment [7] and in [8] were 1.96 and 0.925, respectively.
